# Publication PMC9482650, “Quantitative fragmentomics allow affinity mapping of interactomes” (Nature Communications, 2022)
# Molecular target: T1, DFNB31_1, Q9P202
# T1 sequence (Q9P202 135-233, limits assumed, looked up): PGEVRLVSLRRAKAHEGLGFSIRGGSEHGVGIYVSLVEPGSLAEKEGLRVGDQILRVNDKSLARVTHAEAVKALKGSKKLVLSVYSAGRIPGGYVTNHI
# Assay: holdup assay
# Design: key: below the threshold = too weak to quantify, mostly under pKd 3.1 to 4
# Settings: plain residues with an end cap or a label only (N-terminal biotin on a linker: ado-ado)
row,Binder,pKd
1,"SKSNFGSEPL [KIF17, Q9P2E2]",below the threshold

# Molecular target: T2, LRRC7, Q96NW7
# T2 sequence (Q96NW7 1440-1537, limits assumed, looked up): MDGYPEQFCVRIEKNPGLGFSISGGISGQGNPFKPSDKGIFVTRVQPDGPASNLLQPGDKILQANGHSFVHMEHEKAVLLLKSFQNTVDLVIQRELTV
# Assay: holdup assay
# Design: key: below the threshold = too weak to quantify, mostly under pKd 3.1 to 4
# Settings: plain residues with an end cap or a label only (N-terminal biotin on a linker: ado-ado)
row,Binder,pKd
1,"SKSNFGSEPL [KIF17, Q9P2E2]",below the threshold

# Molecular target: T3, MPDZ_10, O75970
# T3 sequence (O75970 1624-1722, limits assumed, looked up): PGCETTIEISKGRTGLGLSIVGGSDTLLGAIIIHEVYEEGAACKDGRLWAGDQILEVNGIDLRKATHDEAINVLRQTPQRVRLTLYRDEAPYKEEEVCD
# Assay: holdup assay
# Design: key: below the threshold = too weak to quantify, mostly under pKd 3.1 to 4
# Settings: plain residues with an end cap or a label only (N-terminal biotin on a linker: ado-ado)
row,Binder,pKd
1,"SKSNFGSEPL [KIF17, Q9P2E2]",below the threshold

# Molecular target: FRMPD3, Q5JV73
# Assay: holdup assay
# Design: key: below the threshold = too weak to quantify, mostly under pKd 3.1 to 4
# Settings: plain residues with an end cap or a label only (N-terminal biotin on a linker: ado-ado)
# Chain of FRMPD3, Q5JV73 (Q5JV73 12-100): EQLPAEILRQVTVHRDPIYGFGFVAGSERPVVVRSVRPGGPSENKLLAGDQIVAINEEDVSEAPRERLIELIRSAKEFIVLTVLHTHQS
row,Binder,pKd
1,"SKSNFGSEPL [KIF17, Q9P2E2]",below the threshold

# Molecular target: T4, CARD11, Q9BXL7
# T4 sequence (Q9BXL7 662-765, limits assumed, looked up): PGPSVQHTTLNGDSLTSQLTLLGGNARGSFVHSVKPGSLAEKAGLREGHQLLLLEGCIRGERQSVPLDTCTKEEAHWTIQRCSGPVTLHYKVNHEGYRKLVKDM
# Assay: holdup assay
# Design: key: below the threshold = too weak to quantify, mostly under pKd 3.1 to 4
# Settings: plain residues with an end cap or a label only (N-terminal biotin on a linker: ado-ado)
row,Binder,pKd
1,"SKSNFGSEPL [KIF17, Q9P2E2]",below the threshold

# Molecular target: T5, GRIP1_7, Q9Y3R0
# T5 sequence (Q9Y3R0 999-1096, limits assumed, looked up): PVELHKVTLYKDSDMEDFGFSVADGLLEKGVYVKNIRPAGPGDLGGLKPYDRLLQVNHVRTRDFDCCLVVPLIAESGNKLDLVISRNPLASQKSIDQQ
# Assay: holdup assay
# Design: key: below the threshold = too weak to quantify, mostly under pKd 3.1 to 4
# Settings: plain residues with an end cap or a label only (N-terminal biotin on a linker: ado-ado)
row,Binder,pKd
1,"SKSNFGSEPL [KIF17, Q9P2E2]",below the threshold

# Molecular target: GOPC, Q9HD26
# Assay: holdup assay
# Design: key: below the threshold = too weak to quantify, mostly under pKd 3.1 to 4
# Settings: plain residues with an end cap or a label only (N-terminal biotin on a linker: ado-ado)
row,Binder,pKd
1,"SKSNFGSEPL [KIF17, Q9P2E2]",below the threshold

# Molecular target: Inadl_4, Q8NI35
# Assay: holdup assay
# Design: key: below the threshold = too weak to quantify, mostly under pKd 3.1 to 4
# Settings: plain residues with an end cap or a label only (N-terminal biotin on a linker: ado-ado)
# Chain of Inadl_4, Q8NI35 (Q8NI35 547-651): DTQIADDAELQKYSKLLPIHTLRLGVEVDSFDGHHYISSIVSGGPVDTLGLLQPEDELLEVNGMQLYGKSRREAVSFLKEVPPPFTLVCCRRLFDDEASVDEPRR
row,Binder,pKd
1,"SKSNFGSEPL [KIF17, Q9P2E2]",below the threshold

# Molecular target: IL16_1, Q14005
# Assay: holdup assay
# Design: key: below the threshold = too weak to quantify, mostly under pKd 3.1 to 4
# Settings: plain residues with an end cap or a label only (N-terminal biotin on a linker: ado-ado)
# Chain of IL16_1, Q14005 (Q14005 210-306): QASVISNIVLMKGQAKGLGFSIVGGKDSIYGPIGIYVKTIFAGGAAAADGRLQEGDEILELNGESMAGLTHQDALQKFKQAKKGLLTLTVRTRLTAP
row,Binder,pKd
1,"SKSNFGSEPL [KIF17, Q9P2E2]",below the threshold

# Molecular target: NHERF4_1, Q86UT5-2
# Assay: holdup assay
# Design: key: below the threshold = too weak to quantify, mostly under pKd 3.1 to 4
# Settings: plain residues with an end cap or a label only (N-terminal biotin on a linker: ado-ado)
# Chain of NHERF4_1, Q86UT5-2 (Q86UT5 other isoform, or with tags, fused parts or gaps): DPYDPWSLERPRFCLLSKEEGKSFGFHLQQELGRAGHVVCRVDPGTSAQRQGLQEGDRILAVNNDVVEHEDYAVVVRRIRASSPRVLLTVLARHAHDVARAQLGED
row,Binder,pKd
1,"SKSNFGSEPL [KIF17, Q9P2E2]",4.21

# Molecular target: HTRA2, O43464
# Assay: holdup assay
# Design: key: below the threshold = too weak to quantify, mostly under pKd 3.1 to 4
# Settings: plain residues with an end cap or a label only (N-terminal biotin on a linker: ado-ado)
# Chain of HTRA2, O43464 (O43464 355-458): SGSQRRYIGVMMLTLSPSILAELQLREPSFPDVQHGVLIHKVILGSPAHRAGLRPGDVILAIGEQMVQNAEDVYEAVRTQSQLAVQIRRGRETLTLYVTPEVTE
row,Binder,pKd
1,"SKSNFGSEPL [KIF17, Q9P2E2]",below the threshold

# Molecular target: T6, GRIP1_2, Q9Y3R0
# T6 sequence (Q9Y3R0 145-248, limits assumed, looked up): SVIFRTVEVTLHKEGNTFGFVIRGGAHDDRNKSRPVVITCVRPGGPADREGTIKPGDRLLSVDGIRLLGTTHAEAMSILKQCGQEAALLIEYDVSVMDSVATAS
# Assay: holdup assay
# Design: key: below the threshold = too weak to quantify, mostly under pKd 3.1 to 4
# Settings: plain residues with an end cap or a label only (N-terminal biotin on a linker: ado-ado)
row,Binder,pKd
1,"SKSNFGSEPL [KIF17, Q9P2E2]",below the threshold

# Molecular target: FRMPD4, Q14CM0
# Assay: holdup assay
# Design: key: below the threshold = too weak to quantify, mostly under pKd 3.1 to 4
# Settings: plain residues with an end cap or a label only (N-terminal biotin on a linker: ado-ado)
# Chain of FRMPD4, Q14CM0 (Q14CM0 67-160): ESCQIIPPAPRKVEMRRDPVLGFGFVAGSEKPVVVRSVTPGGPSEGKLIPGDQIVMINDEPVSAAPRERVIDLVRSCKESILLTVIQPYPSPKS
row,Binder,pKd
1,"SKSNFGSEPL [KIF17, Q9P2E2]",below the threshold

# Molecular target: FRMPD2_2, Q68DX3
# Assay: holdup assay
# Design: key: below the threshold = too weak to quantify, mostly under pKd 3.1 to 4
# Settings: plain residues with an end cap or a label only (N-terminal biotin on a linker: ado-ado)
# Chain of FRMPD2_2, Q68DX3 (Q68DX3 944-1038): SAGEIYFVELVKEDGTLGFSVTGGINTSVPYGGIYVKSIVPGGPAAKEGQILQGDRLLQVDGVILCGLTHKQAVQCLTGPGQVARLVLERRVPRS
row,Binder,pKd
1,"SKSNFGSEPL [KIF17, Q9P2E2]",below the threshold

# Molecular target: DLG4_2, P78352
# Assay: holdup assay
# Design: key: below the threshold = too weak to quantify, mostly under pKd 3.1 to 4
# Settings: plain residues with an end cap or a label only (N-terminal biotin on a linker: ado-ado)
# Chain of DLG4_2, P78352 (P78352 155-259): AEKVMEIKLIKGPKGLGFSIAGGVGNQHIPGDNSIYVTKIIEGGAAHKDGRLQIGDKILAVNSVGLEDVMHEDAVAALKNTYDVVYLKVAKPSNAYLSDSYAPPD
row,Binder,pKd
1,"SKSNFGSEPL [KIF17, Q9P2E2]",below the threshold

# Molecular target: LDB3, O75112
# Assay: holdup assay
# Design: key: below the threshold = too weak to quantify, mostly under pKd 3.1 to 4
# Settings: plain residues with an end cap or a label only (N-terminal biotin on a linker: ado-ado)
# Chain of LDB3, O75112 (O75112 1-94): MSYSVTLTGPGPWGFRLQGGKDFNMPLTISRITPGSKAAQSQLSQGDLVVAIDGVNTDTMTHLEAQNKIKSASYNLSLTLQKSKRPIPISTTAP
row,Binder,pKd
1,"SKSNFGSEPL [KIF17, Q9P2E2]",below the threshold

# Molecular target: T7, MPDZ_5, O75970
# T7 sequence (O75970 695-796, limits assumed, looked up): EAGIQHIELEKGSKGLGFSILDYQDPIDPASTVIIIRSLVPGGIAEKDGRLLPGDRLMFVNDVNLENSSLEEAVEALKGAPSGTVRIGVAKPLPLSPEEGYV
# Assay: holdup assay
# Design: key: below the threshold = too weak to quantify, mostly under pKd 3.1 to 4
# Settings: plain residues with an end cap or a label only (N-terminal biotin on a linker: ado-ado)
row,Binder,pKd
1,"SKSNFGSEPL [KIF17, Q9P2E2]",below the threshold

# Molecular target: T8, MPP7, Q5T2T1
# T8 sequence (Q5T2T1 134-230, limits assumed, looked up): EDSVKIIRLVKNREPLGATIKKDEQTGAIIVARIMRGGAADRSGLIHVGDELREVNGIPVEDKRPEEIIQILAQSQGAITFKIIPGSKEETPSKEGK
# Assay: holdup assay
# Design: key: below the threshold = too weak to quantify, mostly under pKd 3.1 to 4
# Settings: plain residues with an end cap or a label only (N-terminal biotin on a linker: ado-ado)
row,Binder,pKd
1,"SKSNFGSEPL [KIF17, Q9P2E2]",below the threshold

# Molecular target: Inadl_2, Q8NI35
# Assay: holdup assay
# Design: key: below the threshold = too weak to quantify, mostly under pKd 3.1 to 4
# Settings: plain residues with an end cap or a label only (N-terminal biotin on a linker: ado-ado)
# Chain of Inadl_2, Q8NI35 (Q8NI35 238-335): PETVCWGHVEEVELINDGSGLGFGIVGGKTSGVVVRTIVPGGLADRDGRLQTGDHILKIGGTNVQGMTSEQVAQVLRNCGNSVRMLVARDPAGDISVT
row,Binder,pKd
1,"SKSNFGSEPL [KIF17, Q9P2E2]",below the threshold

# Molecular target: MAGI3_2, Q5TCQ9
# Assay: holdup assay
# Design: key: below the threshold = too weak to quantify, mostly under pKd 3.1 to 4
# Settings: plain residues with an end cap or a label only (N-terminal biotin on a linker: ado-ado)
# Chain of MAGI3_2, Q5TCQ9 (Q5TCQ9 398-503): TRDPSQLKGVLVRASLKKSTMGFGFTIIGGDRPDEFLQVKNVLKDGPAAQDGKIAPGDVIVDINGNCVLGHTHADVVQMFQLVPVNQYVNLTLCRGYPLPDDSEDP
row,Binder,pKd
1,"SKSNFGSEPL [KIF17, Q9P2E2]",below the threshold

# Molecular target: GRIP2_6, Q9C0E4
# Assay: holdup assay
# Design: key: below the threshold = too weak to quantify, mostly under pKd 3.1 to 4
# Settings: plain residues with an end cap or a label only (N-terminal biotin on a linker: ado-ado)
# Chain of GRIP2_6, Q9C0E4 (Q9C0E4 648-740): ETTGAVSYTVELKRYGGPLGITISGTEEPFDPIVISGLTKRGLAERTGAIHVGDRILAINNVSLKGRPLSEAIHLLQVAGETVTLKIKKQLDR
row,Binder,pKd
1,"SKSNFGSEPL [KIF17, Q9P2E2]",below the threshold

# Molecular target: MAST1, Q9Y2H9
# Assay: holdup assay
# Design: key: below the threshold = too weak to quantify, mostly under pKd 3.1 to 4
# Settings: plain residues with an end cap or a label only (N-terminal biotin on a linker: ado-ado)
# Chain of MAST1, Q9Y2H9 (Q9Y2H9 962-1065): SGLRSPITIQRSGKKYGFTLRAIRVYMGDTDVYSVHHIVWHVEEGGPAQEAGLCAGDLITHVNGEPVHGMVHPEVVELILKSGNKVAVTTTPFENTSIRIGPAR
row,Binder,pKd
1,"SKSNFGSEPL [KIF17, Q9P2E2]",3.61

# Molecular target: T9, MPP6, Q9NZW5
# T9 sequence (Q9NZW5 125-219, limits assumed, looked up): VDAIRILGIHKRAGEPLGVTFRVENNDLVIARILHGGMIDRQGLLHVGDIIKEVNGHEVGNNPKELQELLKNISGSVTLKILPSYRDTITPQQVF
# Assay: holdup assay
# Design: key: below the threshold = too weak to quantify, mostly under pKd 3.1 to 4
# Settings: plain residues with an end cap or a label only (N-terminal biotin on a linker: ado-ado)
row,Binder,pKd
1,"SKSNFGSEPL [KIF17, Q9P2E2]",3.66

# Molecular target: T10, RAPGEF6, Q8TEU7
# T10 sequence (Q8TEU7 525-625, limits assumed, looked up): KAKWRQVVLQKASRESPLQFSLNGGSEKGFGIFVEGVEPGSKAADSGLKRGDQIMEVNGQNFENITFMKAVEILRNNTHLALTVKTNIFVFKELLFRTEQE
# Assay: holdup assay
# Design: key: below the threshold = too weak to quantify, mostly under pKd 3.1 to 4
# Settings: plain residues with an end cap or a label only (N-terminal biotin on a linker: ado-ado)
row,Binder,pKd
1,"SKSNFGSEPL [KIF17, Q9P2E2]",below the threshold

# Molecular target: MAGI2_5, Q86UL8
# Assay: holdup assay
# Design: key: below the threshold = too weak to quantify, mostly under pKd 3.1 to 4
# Settings: plain residues with an end cap or a label only (N-terminal biotin on a linker: ado-ado)
# Chain of MAGI2_5, Q86UL8 (Q86UL8 915-1017): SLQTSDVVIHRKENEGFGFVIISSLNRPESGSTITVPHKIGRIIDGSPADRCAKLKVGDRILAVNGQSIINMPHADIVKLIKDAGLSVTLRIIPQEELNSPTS
row,Binder,pKd
1,"SKSNFGSEPL [KIF17, Q9P2E2]",below the threshold

# Molecular target: T11, RADIL, Q96JH8
# T11 sequence (Q96JH8 971-1071, limits assumed, looked up): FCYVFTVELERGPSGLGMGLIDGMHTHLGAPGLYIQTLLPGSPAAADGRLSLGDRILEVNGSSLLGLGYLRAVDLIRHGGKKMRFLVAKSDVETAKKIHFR
# Assay: holdup assay
# Design: key: below the threshold = too weak to quantify, mostly under pKd 3.1 to 4
# Settings: plain residues with an end cap or a label only (N-terminal biotin on a linker: ado-ado)
row,Binder,pKd
1,"SKSNFGSEPL [KIF17, Q9P2E2]",below the threshold
